The target in this test is T1, SARS-CoV-2 RBD (SARS-CoV-2, UniProt P0DTC2 319-541).
T1 construct: domain: RBD
Description: ELISA on recombinant spike subdomains.

B1: 71281-31 (antibody, V domains shown)
VH: QVQLVESGGGVVQPGRSLRLSCAASGFTFSRYGMHWVRQAPGKGLEWVAFISYDGDNKYYADSVKGRFTISRDNSKNTLYLQMDSLRTEDTAVYYCAKDPTARLGYCRGGSCYLADYWGQGTLVTVSS
VL: SYVLTQPPSVSVAPAQTARITCGGNNIESKSVHWYQQKPGQAPVLVVYENSDRPSGIPERFSGSNSGNMATLTISRVEAGDEADYYCQVWESSSDHVIFGGGTKLTVL
B1: the binding result is listed as “binds”.

The values are drawn from US20260234224A1 (VANDERBILT UNIVERSITY, published 2026).
